# Reference: paper PMC8420576
# Molecular target: SARS-CoV-2 Spike RBD (residues 334–527), C-terminal Avi-His6 tag, biotinylated (SARS-CoV-2) (UniProt P0DTC2)
# Assay: BLI
substance,measurement,value
VHH72,Kd,27 nM
same,koff,0.0036 s⁻¹
